In paper PMC7113306, “Molecular basis of ALK1-mediated signalling by BMP9/BMP10 and their prodomain-bound forms” (Nature Communications, 2020):

T1: soluble endoglin (sENG) (human, UniProt P17813 26-586)
T1 construct: signal peptide in the construct; endoglin (ENG), human, residue 1-586 of the cDNA; source: HEK EBNA, transfected (pCEP4), purified from conditioned medium (HiTrap Excel, HiTrap Q, Superdex 200)
T1 sequence (looked up): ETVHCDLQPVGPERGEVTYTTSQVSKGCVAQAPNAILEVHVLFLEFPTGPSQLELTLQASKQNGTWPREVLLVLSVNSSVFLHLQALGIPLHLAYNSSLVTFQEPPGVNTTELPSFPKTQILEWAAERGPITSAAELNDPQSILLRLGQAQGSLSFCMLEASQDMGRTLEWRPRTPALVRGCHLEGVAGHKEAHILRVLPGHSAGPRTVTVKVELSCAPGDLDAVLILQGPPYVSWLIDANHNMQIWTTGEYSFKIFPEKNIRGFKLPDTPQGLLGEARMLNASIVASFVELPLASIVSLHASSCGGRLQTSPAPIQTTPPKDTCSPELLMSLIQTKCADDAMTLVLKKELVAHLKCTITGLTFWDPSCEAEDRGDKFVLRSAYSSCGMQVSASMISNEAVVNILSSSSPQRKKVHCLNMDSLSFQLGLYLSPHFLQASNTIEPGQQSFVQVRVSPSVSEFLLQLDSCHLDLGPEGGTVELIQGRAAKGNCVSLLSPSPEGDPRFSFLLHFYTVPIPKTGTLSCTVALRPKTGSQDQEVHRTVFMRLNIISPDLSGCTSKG


Key:
[1] = molecular target: T1, soluble endoglin (sENG); test: SEC; analytical gel filtration, Superdex 200 10/300, 20 mM Tris.HCl, 150 mM NaCl, pH 7.4; 100 μg protein with 2-fold molar excess of ALK1 ECD; peaks checked by SDS-PAGE and anti-prodomain blot; details: both partners purified
[2] = molecular target: the molecule itself; test: crystal structure; pro-BMP9 mixed with ALK1 ECD at 1:1.5, 3.3 Å, space group P6_(1)
[3] = molecular target: T2, ALK1 extracellular domain (ALK1 ECD) (human, UniProt P37023 22-118); test: crystal structure; BMP10 GF-domain with ALK1 ECD, 2.3 Å and 2.8 Å, space group P6_(5)22; details: both partners purified
T2 construct: activin receptor-like kinase 1 (ALK1), human, cDNA NM_000020, amino acids 22-118; Released from DsbA-(His)6 by TEV protease; also called ALK1 monomer; source: E. coli Rosetta DE3, periplasm, purified (Ni-NTA, TEV cleavage, Superdex 75); not shown: DsbA, N-terminal, cleaved; His6, N-terminal, cleaved

[4] = molecular target: the molecule itself; test: as above

T2 sequence (P37023 22-118): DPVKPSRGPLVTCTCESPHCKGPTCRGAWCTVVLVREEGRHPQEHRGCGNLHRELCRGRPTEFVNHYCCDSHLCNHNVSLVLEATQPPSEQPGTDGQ

| Binder | binding result [1] | stoichiometry N [2] | stoichiometry N [3] | stoichiometry N [4] |
| --- | --- | --- | --- | --- |
| BMP9 GF-domain from pro-BMP9 (ligand, human, UniProt Q9UK05 320-429, looked up, BMP9 GF-domain, human, the processed C-terminal product of full-length proBMP9; also called BMP9 dimer; source: HEK EBNA, as part of purified pro-BMP9) SAGAGSHCQKTSLRVNFEDIGWDSWIIAPKEYEAYECKGGCFFPLADDVTPTKHAIVQTLVHLKFPTKVGKACCVPTKLSPISVLYKDDMGVPTLKYHYEGMSVAECGCR | binds | 2 | – | – |
| BMP10 GF-domain from pro-BMP10 (ligand, human, UniProt O95393 317-424, looked up, BMP10 GF-domain, human, the processed C-terminal product of full length proBMP10; also called BMP10 GF-domain disulphide-linked dimer; source: HEK EBNA, as part of purified pro-BMP10) NAKGNYCKRTPLYIDFKEIGWDSWIIAPPGYEAYECRGVCNYPLAEHLTPTKHAIIQALVHLKNSQKASKACCVPTKLEPISILYLDKGVVTYKFKYEGMAVSECGCR | – | – | 1 ALK1 ECD per BMP10 monomer (2:2) | 2 |
